Assay results: the Immune Epitope Database (IEDB)

Experiments:
HLA-A*11:01 [1] = assay: IEDB peptide-MHC binding, purified MHC/competitive/fluorescence; ≥ and ≤ were set here for values at or beyond the usual limits of such assays
HLA-A*02:03 = assay: IEDB peptide-MHC binding, purified MHC/direct/fluorescence; filed as Kd, often an IC50 or EC50 that approximates it; ≥ and ≤ were set here for values at or beyond the usual limits of such assays; details: source organism: Mycobacterium tuberculosis str. Haarlem
HLA-B*58:01 [2] = assay: IEDB peptide-MHC binding, purified MHC/competitive/radioactivity; filed as Kd, often an IC50 or EC50 that approximates it; ≥ and ≤ were set here for values at or beyond the usual limits of such assays
HLA-A*02:01 [3] = assay: IEDB peptide-MHC binding, purified MHC/competitive/fluorescence; ≥ and ≤ were set here for values at or beyond the usual limits of such assays
HLA-A*24:02 = assay: as above
HLA-B*08:01 = assay: as above
HLA-A*01:01 = assay: IEDB peptide-MHC binding, purified MHC/direct/fluorescence; filed as Kd, often an IC50 or EC50 that approximates it; ≥ and ≤ were set here for values at or beyond the usual limits of such assays
HLA-B*57:01 = assay: as above
HLA-A*29:02 = assay: as above
HLA-B*48:01 = assay: as above
HLA-B*15:01 [4] = assay: as above
HLA-B*58:01 [5] = assay: as above
HLA-B*27:05 = assay: as above
HLA-A*02:01 [6] = assay: as above
HLA-B*44:02 = assay: as above
HLA-B*46:01 = assay: as above
HLA-A*69:01 = assay: as above
HLA-B*18:01 = assay: as above
HLA-B*07:02 = assay: as above; details: source organism: Mycobacterium avium 104
HLA-A*03:01 = assay: as above
HLA-B*39:01 = assay: as above
HLA-A*11:01 [7] = assay: as above
HLA-A*31:01 = assay: as above
HLA-B*15:01 [8] = assay: IEDB peptide-MHC binding, purified MHC/competitive/fluorescence; filed as Kd, often an IC50 or EC50 that approximates it; ≥ and ≤ were set here for values at or beyond the usual limits of such assays; details: source organism: Shigella boydii CDC 3083-94
HLA-A*02:01 [9] = assay: as above; details: source organism: Shigella boydii CDC 3083-94
HLA-B*53:01 = assay: IEDB peptide-MHC binding, purified MHC/competitive/radioactivity; filed as Kd, often an IC50 or EC50 that approximates it; ≥ and ≤ were set here for values at or beyond the usual limits of such assays; details: source organism: Dengue virus 1 Brazil/97-11/1997
HLA-B*15:17 = assay: IEDB peptide-MHC binding, purified MHC/direct/fluorescence; filed as Kd, often an IC50 or EC50 that approximates it; ≥ and ≤ were set here for values at or beyond the usual limits of such assays
HLA-B*40:01 = assay: as above
HLA-B*51:01 = assay: as above; details: source organism: Mycobacterium tuberculosis
[10] = source organism: Vaccinia virus
[11] = source organism: Zaire ebolavirus
[12] = source organism: Mycobacterium avium 104
[13] = source organism: Vaccinia virus WR
[14] = source organism: Mycobacterium tuberculosis
[15] = source organism: West Nile virus
[16] = source organism: Lake Victoria marburgvirus - Popp

For AADEPPLVR, the IC50 (HLA-A*11:01 [1]; [10]) was no less than 142 µM.

In the case of AMWDWSKSV, the Kd (HLA-A*02:03) is reported as no more than 0.001 µM.

In the case of ASAIVLEFF, the Kd (HLA-B*58:01 [2]; source organism: Dengue virus 3 Martinique/1243/1999) is reported as 0.0282 µM.

Work on DMDYHKILT yielded an IC50 (HLA-A*02:01 [3]; [11]) of no less than 277 µM, an IC50 (HLA-A*24:02; [11]) of 4.04 µM and an IC50 (HLA-B*08:01; [11]) of no less than 199 µM.

With EHVQGDIDL the Kd (HLA-A*01:01; [12]) was no less than 20 µM, the Kd (HLA-B*57:01; [12]) was no less than 20 µM and the Kd (HLA-A*29:02; [12]) was no less than 20 µM. It also gave a Kd (HLA-B*48:01; [12]) of no less than 20 µM, a Kd (HLA-B*15:01 [4]; [12]) of no less than 20 µM and a Kd (HLA-B*58:01 [5]; [12]) of no less than 20 µM. It also gave a Kd (HLA-B*27:05; [12]) of no less than 20 µM, a Kd (HLA-A*02:01 [6]; [12]) of no less than 20 µM and a Kd (HLA-B*44:02; [12]) of no less than 20 µM. For the same sequence, the Kd (HLA-B*46:01; [12]) was no less than 20 µM, the Kd (HLA-A*69:01; [12]) was no less than 20 µM and the Kd (HLA-B*18:01; [12]) was no less than 20 µM. It also gave a Kd (HLA-B*07:02) of no less than 20 µM, a Kd (HLA-A*03:01; [12]) of no less than 20 µM and a Kd (HLA-B*39:01; [12]) of 0.224 µM. It also gave a Kd (HLA-A*11:01 [7]; [12]) of no less than 20 µM and a Kd (HLA-A*31:01; [12]) of no less than 20 µM.

In the case of ENKKNLSEQ, the IC50 (HLA-A*11:01 [1]; source organism: Sudan ebolavirus) is reported as no less than 75.4 µM.

Sequence FRAFRNLNV has an IC50 (HLA-A*02:01 [3]; [10]) of no less than 89.1 µM and an IC50 (HLA-B*08:01; [10]) of 6.19 µM.

In the case of FTFEWNGRI, the Kd (HLA-B*15:01 [8]) is reported as no less than 20 µM and the Kd (HLA-A*02:01 [9]) is reported as 0.0145 µM.

With FVTNEVHTW the Kd (HLA-B*58:01 [2]; source organism: Dengue virus 1 Brazil/97-11/1997) was 0.0299 µM and the Kd (HLA-B*53:01) was 0.0612 µM.

Sequence FYTRVLKPS has an IC50 (HLA-A*02:01 [3]; [13]) of no less than 110 µM, an IC50 (HLA-A*24:02; [13]) of 7.11 µM and an IC50 (HLA-A*11:01 [1]; [13]) of no less than 179 µM.

GPRGRHVVL was tested, and the Kd (HLA-A*01:01; [14]) was no less than 20 µM, the Kd (HLA-B*57:01; [14]) was no less than 20 µM and the Kd (HLA-B*15:17; [14]) was no less than 20 µM. The Kd (HLA-B*48:01; [14]) was no less than 20 µM, the Kd (HLA-B*15:01 [4]; [14]) was no less than 20 µM and the Kd (HLA-B*58:01 [5]; [14]) was no less than 20 µM. The Kd (HLA-B*27:05; [14]) was no less than 20 µM, the Kd (HLA-A*02:01 [6]; [14]) was no less than 20 µM and the Kd (HLA-B*46:01; [14]) was no less than 20 µM. It also gave a Kd (HLA-A*69:01; [14]) of no less than 20 µM, a Kd (HLA-B*18:01; [14]) of no less than 20 µM and a Kd (HLA-B*40:01; [14]) of no less than 20 µM. It also gave a Kd (HLA-A*03:01; [14]) of no less than 20 µM, a Kd (HLA-B*39:01; source organism: Mycobacterium tuberculosis str. Haarlem) of no less than 20 µM and a Kd (HLA-B*51:01) of no less than 20 µM. It also gave a Kd (HLA-A*11:01 [7]; [14]) of no less than 20 µM and a Kd (HLA-A*31:01; [14]) of no less than 20 µM.

For GTSGSPIVDK, the IC50 (HLA-A*11:01 [1]; [15]) was 0.212 µM.

ITDITSPLW was tested, and the Kd (HLA-B*57:01; [16]) was 0.0645 µM, the Kd (HLA-B*15:17; [16]) was no more than 0.001 µM and the Kd (HLA-B*58:01 [5]; [16]) was 0.003 µM.

With KIRNRIERL the Kd (HLA-A*01:01; [15]) was no less than 20 µM, the Kd (HLA-B*57:01; [15]) was no less than 20 µM and the Kd (HLA-A*29:02; [15]) was no less than 20 µM. The Kd (HLA-B*48:01; [15]) was no less than 20 µM, the Kd (HLA-B*27:05; [15]) was no less than 20 µM and the Kd (HLA-B*44:02; [15]) was no less than 20 µM. The Kd (HLA-B*46:01; [15]) was no less than 20 µM, the Kd (HLA-A*69:01; [15]) was no less than 20 µM and the Kd (HLA-B*18:01; [15]) was no less than 20 µM. It also gave a Kd (HLA-B*40:01; [15]) of no less than 20 µM, a Kd (HLA-A*03:01; [15]) of no less than 20 µM and a Kd (HLA-A*11:01 [7]; [15]) of no less than 20 µM.
